The target of experiment [1] is HFBII–Protein A fusion protein (Trichoderma reesei | Staphylococcus aureus). Kind of experiment: QCM-D (quartz crystal microbalanc). The following applies: scale: moles of rituximab per mole of immobilized HFBII–Protein A.
Experiment [2] addresses HFBI–Protein A fusion protein (Trichoderma reesei | Staphylococcus aureus). Kind of experiment: QCM-D (quartz crystal microbalanc). The following applies: scale: moles of rituximab per mole of immobilized HFBI–Protein A.
Experiment [3] concerns the target commercial Protein A (Sigma-Aldrich) (Staphylococcus aureus) (UniProt P38507). Kind of experiment: QCM-D (quartz crystal microbalance with dissipation monitoring).

For the substance rituximab (antibody), the stoichiometry N (usually a count of units in the complex or per binding partner) in experiment [1] worked out at 1.2; in experiment [2], 1.5; in experiment [3], 1.2.

The values are drawn from paper PMC5787837.
